Laboratory results from US20240262915A1 (NANJING SANHOME PHARMACEUTICAL, published 2024).

T1: TIGIT-his (extracellular region of human TIGIT protein fused with his) (human, UniProt Q495A1 22-141)
T1 construct: also called antigen TIGIT-his
T1 sequence: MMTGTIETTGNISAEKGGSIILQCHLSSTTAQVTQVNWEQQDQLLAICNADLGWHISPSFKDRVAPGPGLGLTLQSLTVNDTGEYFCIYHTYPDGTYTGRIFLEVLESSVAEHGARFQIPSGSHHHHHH

T2: full-length TIGIT on hTIGIT-CHO-K1 cells (human, UniProt Q495A1 22-244)
T2 construct: CHO-K1 cells stably transfected with pTargeT-TIGIT; also called TIGIT on cell surface
T2 sequence: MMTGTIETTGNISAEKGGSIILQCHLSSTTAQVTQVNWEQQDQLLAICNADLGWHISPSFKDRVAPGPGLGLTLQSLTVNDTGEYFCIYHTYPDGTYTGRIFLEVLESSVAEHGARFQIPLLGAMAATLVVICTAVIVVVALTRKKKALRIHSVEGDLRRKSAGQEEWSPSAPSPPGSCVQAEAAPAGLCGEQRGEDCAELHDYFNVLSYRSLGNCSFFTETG

T3: TIGIT-mFc (extracellular region of human TIGIT with mIgG1-Fc tag) (human)
T3 construct: A bought TIGIT-mFc (Acro Biosystems TIT-H5253) is used for immunization; also called recombinant humanized TIGIT-mFc
T3 chain: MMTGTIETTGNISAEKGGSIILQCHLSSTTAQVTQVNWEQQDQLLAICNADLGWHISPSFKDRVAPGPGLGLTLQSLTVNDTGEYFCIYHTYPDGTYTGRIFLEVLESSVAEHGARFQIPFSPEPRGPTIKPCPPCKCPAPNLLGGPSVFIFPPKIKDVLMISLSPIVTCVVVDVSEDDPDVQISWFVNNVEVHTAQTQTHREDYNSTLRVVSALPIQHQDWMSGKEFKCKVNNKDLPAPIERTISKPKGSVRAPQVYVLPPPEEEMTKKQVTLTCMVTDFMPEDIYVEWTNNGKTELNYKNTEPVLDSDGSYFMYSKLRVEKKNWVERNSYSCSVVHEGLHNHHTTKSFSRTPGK

T4: Human TIGIT-His protein (Sino Biological, 10917-H08H) (human, UniProt Q495A1 22-141)
T4 sequence (looked up): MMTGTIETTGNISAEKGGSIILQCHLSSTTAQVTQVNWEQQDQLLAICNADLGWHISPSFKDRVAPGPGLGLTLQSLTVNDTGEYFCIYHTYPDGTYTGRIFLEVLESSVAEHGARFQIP

T5: TIGIT on TIGIT/NFAT-reporter-Jurkat cells (UniProt Q495A1 22-244, limits assumed)
T5 sequence (looked up): T2 sequence

B1: SHS006-T-Hu23-53 (antibody, IgG4, V domains shown)
VH: EVQLVESGGGLVQPGGSLRLSCAASGFTFSDHWMSWVRQAPGKTMEWIGNIQYDGSYTNYAPSLKNRFTISRDNAKNSLYLQMNSLRAEDTATYYCTRGHFRITMASMGASASVYWGQGTMVTVSS
VL: DIQMTQSPSSLSASVGDRVTITCRTSQDIGNSLRWFQQKPGKAPKLLIHGATNLANGVPSRFSGSGSGTDFTLTISSLQPEDFATYYCLQHNEYPLTFGQGTKLEIK
notes: Humanized; also called SHS006-HuT23-53; HuT23-53
B2: HuPL1642-T2353-ScFv (bispecific antibody, human IgG4 S228P, kappa)
heavy: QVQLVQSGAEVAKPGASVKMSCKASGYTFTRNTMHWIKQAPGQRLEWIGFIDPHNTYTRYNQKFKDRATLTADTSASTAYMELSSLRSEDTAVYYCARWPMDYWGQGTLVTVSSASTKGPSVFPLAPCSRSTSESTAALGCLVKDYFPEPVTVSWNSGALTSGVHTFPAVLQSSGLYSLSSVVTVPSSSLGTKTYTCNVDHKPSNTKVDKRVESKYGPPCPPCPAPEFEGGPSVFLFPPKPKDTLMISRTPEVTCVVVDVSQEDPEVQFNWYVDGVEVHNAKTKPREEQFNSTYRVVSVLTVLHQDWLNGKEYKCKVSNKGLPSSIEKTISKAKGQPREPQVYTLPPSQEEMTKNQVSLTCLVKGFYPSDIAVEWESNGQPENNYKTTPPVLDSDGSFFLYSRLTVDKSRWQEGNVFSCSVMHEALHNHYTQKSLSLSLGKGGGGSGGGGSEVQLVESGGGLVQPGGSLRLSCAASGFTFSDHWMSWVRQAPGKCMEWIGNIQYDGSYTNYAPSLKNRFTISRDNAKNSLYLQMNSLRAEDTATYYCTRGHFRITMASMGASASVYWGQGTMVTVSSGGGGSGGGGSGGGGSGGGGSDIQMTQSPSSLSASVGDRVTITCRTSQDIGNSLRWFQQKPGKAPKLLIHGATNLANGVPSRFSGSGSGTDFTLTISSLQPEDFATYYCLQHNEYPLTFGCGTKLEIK
light: DIVMTQSPDSLAVSLGERVTMRCKSSQSLSWSENQNNYLSWYQQKPGQPPKLLIYGASIRESGVPDRFSGSGSGTDFTLTISSVQAEDVGVYYCQHNHGSFLPYTFGQGTKLEIKRTVAAPSVFIFPPSDEQLKSGTASVVCLLNNFYPREAKVQWKVDNALQSGNSQESVTEQDSKDSTYSLSSTLTLSKADYEKHKVYACEVTHQGLSSPVTKSFNRGEC
notes: Symmetrical structure: PL1642-T2353-scFv-HC and HuPL1642-VL2
B3: HuPL1642-T2353-ScFab (bispecific antibody, human IgG4 S228P, kappa)
chain 1: DIQMTQSPSSLSASVGDRVTITCRTSQDIGNSLRWFQQKPGKAPKLLIHGATNLANGVPSRFSGSGSGTDFTLTISSLQPEDFATYYCLQHNEYPLTFGCGTKLEIKRTVAAPSVFIFPPSDEQLKSGTASVVCLLNNFYPREAKVQWKVDNALQSGNSQESVTEQDSKDSTYSLSSTLTLSKADYEKHKVYACEVTHQGLSSPVTKSFNRGECGGGGSGGGGSGGGGSGGGGSGGGGSGGGGSGGGGSGGGGSEVQLVESGGGLVQPGGSLRLSCAASGFTFSDHWMSWVRQAPGKCMEWIGNIQYDGSYTNYAPSLKNRFTISRDNAKNSLYLQMNSLRAEDTATYYCTRGHFRITMASMGASASVYWGQGTMVTVSSASTKGPSVFPLAPCSRSTSESTAALGCLVKDYFPEPVTVSWNSGALTSGVHTFPAVLQSSGLYSLSSVVTVPSSSLGTKTYTCNVDHKPSNTKVDKRVESKYGPPCPPCPAPEFLGGPSVFLFPPKPKDTLMISRTPEVTCVVVDVSQEDPEVQFNWYVDGVEVHNAKTKPREEQFNSTYRVVSVLTVLHQDWLNGKEYKCKVSNKGLPSSIEKTISKAKGQPREPQVYTLPPCQEEMTKNQVSLWCLVKGFYPSDIAVEWESNGQPENNYKTTPPVLDSDGSFFLYSRLTVDKSRWQEGNVFSCSVMHEALHNHYTQKSLSLSLGK
chain 2: DIVMTQSPDSLAVSLGERVTMRCKSSQSLSWSENQNNYLSWYQQKPGQPPKLLIYGASIRESGVPDRFSGSGSGTDFTLTISSVQAEDVGVYYCQHNHGSFLPYTFGCGTKLEIKRTVAAPSVFIFPPSDEQLKSGTASVVCLLNNFYPREAKVQWKVDNALQSGNSQESVTEQDSKDSTYSLSSTLTLSKADYEKHKVYACEVTHQGLSSPVTKSFNRGECGGGGSGGGGSGGGGSGGGGSGGGGSGGGGSGGGGSGGGGSQVQLVQSGAEVAKPGASVKMSCKASGYTFTRNTMHWIKQAPGQCLEWIGFIDPHNTYTRYNQKFKDRATLTADTSASTAYMELSSLRSEDTAVYYCARWPMDYWGQGTLVTVSSASTKGPSVFPLAPCSRSTSESTAALGCLVKDYFPEPVTVSWNSGALTSGVHTFPAVLQSSGLYSLSSVVTVPSSSLGTKTYTCNVDHKPSNTKVDKRVESKYGPPCPPCPAPEFLGGPSVFLFPPKPKDTLMISRTPEVTCVVVDVSQEDPEVQFNWYVDGVEVHNAKTKPREEQFNSTYRVVSVLTVLHQDWLNGKEYKCKVSNKGLPSSIEKTISKAKGQPREPQVCTLPPSQEEMTKNQVSLSCAVKGFYPSDIAVEWESNGQPENNYKTTPPVLDSDGSFFLVSRLTVDKSRWQEGNVFSCSVMHEALHNHYTQKSLSLSLGK
B4: SHS006-T-Hu17-31 (antibody, IgG4, V domains shown)
VH: QVTLKESGPVLVKPTETLTLTCTFSGFSLRTYGLGVGWIRQPPGKALEWLANIWWDDDEYYNPSLKNRLTISKDTSKSQAVLTMTNMDPVDTATYYCARIARPHYYWDGRYILDVWGQGTTVTVSS
VL: DIVMTQSPLSLPVTPGEPASISCRSSKSLLHSNGITYLSWYLQKPGQSPQLLIYQISNLASGVPDRFSGSGSGTDFTLKISRVEAEDVGVYYCMQFLEVPYTFGQGTKLEIK
notes: Humanized
B5: humanized antibody 22G2 (antibody, IgG4, V domains shown)
VH: QVQLQESGPGLVKPSETLSLTCTVSGGSVSSGIYYWSWIRQPPGKGLEWIGYIYYSGSTNYNPSLKSRVTISVDTSKNQFSLKLSSVTAADTAVYYCARDYYVSGNYYNVDYYFFGVDVWGQGTTVTVSS
VL: EIVLTQSPATLSLSPGERATLSCRASQSVSSYLAWYQQKPGQAPRLLIYDASNRATGIPARFSGSGSGTDFTLTISSLEPEDFAVYYCQQRSNWPPLFTFGPGTKVDIK
notes: Expressed from pHR-22G2-hG4 (IgG4 heavy chain) and pHR-22G2-hk (light chain); from US 2016/0176963A1; also called positive control antibody
B6: SHS006-17CHI (antibody, V domains shown)
VH: QVTLKESGPGILQPSQTLSLTCTFSGFSLRTYGLGVGWIRQLSGKGLEWLANIWWDDDEYYNPSLKNRLTISKDTSNNQAFLKITNVDTADTATYYCARIARPHYYWDGRYILDVWGQGASVTVSS
VL: DIMMTQSPLSVAVTPGESASISCRSSKSLLHSNGITYLSWYLQRPEKSPQLLIFQISNLASGVSDRFSGSGSGTDFTLIISKVETEDVGIYYCMQFLEVPYTFGAGTKLELK
notes: Chimeric antibody with human heavy and light chain constant regions
B7: SHS006-23CHI (antibody, V domains shown)
VH: EVQLVESEGGLVQPGASVKLSCVGSGFSFSDHWMSWVRQTPGKTMEWIGNIQYDGSYTNYAPSLKNRFTISRDNAKNTLYLQMTNLRSEDTATYYCTRGHFRITMASMGASASVYWGQGVMVTVSS
VL: DIQMTQSPSSLPTSLGDRVTITCRTSQDIGNSLRWFQQKPGKSPRLMIHGATNLANGVPSRFSGSRAGSDYSLTINSLESEDMAMYYCLQHNEYPLTFGSGTKLEIK
notes: as for B6
B8: HuPL7-21 (antibody, IgG4, V domains shown)
VH: QVQLQESGPGLVKPSQTLSLTCTVSGDSITSGYWNWIRQHPGKGLEYIGYISYTGSTYYNLSLKSRVTISRDTSKNQFSLKLSSVTAADTAVYYCARYILWLRHFDYWGQGTLVTVSS
VL: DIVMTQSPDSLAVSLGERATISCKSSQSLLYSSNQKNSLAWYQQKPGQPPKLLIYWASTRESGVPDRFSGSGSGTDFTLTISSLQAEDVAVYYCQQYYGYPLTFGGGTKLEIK
notes: also called humanized anti-PD-L1 antibody HuPL7-21
B9: HuPL16-42 (antibody, IgG4, V domains shown)
VH: QVQLVQSGAEVAKPGASVKMSCKASGYTFTRNTMHWIKQAPGQRLEWIGFIDPHNTYTRYNQKFKDRATLTADTSASTAYMELSSLRSEDTAVYYCARWPMDYWGQGTLVTVSS
VL: DIVMTQSPDSLAVSLGERVTMRCKSSQSLSWSENQNNYLSWYQQKPGQPPKLLIYGASIRESGVPDRFSGSGSGTDFTLTISSVQAEDVGVYYCQHNHGSFLPYTFGQGTKLEIK
notes: also called humanized anti-PD-L1 antibody HuPL16-42
B10: SHS006-23 (antibody, V domains shown)
VH: B7 VH
VL: B7 VL

molecular target: T1, TIGIT-his (extracellular region of …); test: BLI, Fortebio Octet RED96, antibody on AHC sensor, TIGIT-his in solution

Row | Binder | Kd [nM] | koff [s⁻¹] | kon [M⁻¹ s⁻¹]
1 | B1 | 2.43 | 0.00192 | 792000
2 | B2 | 2.74 | 0.00239 | 872000
3 | B3 | 13.9 | 0.00487 | 350000

molecular target: T1, TIGIT-his (extracellular region of …); test: BLI, Fortebio Octet RED96, SA sensor

Row | Binder | Kd [nM] | koff [s⁻¹] | kon [M⁻¹ s⁻¹]
4 | B1 | 1.14 | 0.00151 | 1.33e+06
5 | B4 | 0.327 | 0.000239 | 731000

molecular target: T2, full-length TIGIT on hTIGIT-CHO-K1 cells; test: FACS on hTIGIT-CHO-K1 cells

Row | Binder | EC50 [nM]
6 | B5 | 0.411
7 | B1 | 0.199
8 | B6 | 0.408
9 | B4 | 0.303
10 | B7 | 0.235

Molecular target: T3, TIGIT-mFc (extracellular region of …)
Test: FACS, blocking of TIGIT-mFc binding to cells (TIGIT/CD155; cells printed as hTIGIT-CHO-K1)

Row | Binder | IC50 [nM]
11 | B2 | 1.68
12 | B3 | 1.51

molecular target: T6, human PD-L1 on hPD-L1-CHO-K1 cells (human, UniProt Q9NZQ7 19-290); test: FACS on hPD-L1-CHO-K1 cells
T6 construct: whole, on cells; The making of this cell line is not described
T6 sequence (Q9NZQ7 19-290): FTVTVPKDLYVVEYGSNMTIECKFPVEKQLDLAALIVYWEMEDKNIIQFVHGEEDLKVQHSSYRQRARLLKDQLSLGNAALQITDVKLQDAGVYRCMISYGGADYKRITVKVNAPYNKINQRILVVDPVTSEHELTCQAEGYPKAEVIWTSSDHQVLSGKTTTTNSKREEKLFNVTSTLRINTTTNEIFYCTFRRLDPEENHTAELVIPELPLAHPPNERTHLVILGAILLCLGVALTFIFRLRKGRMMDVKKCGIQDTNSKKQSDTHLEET

Row | Binder | EC50 [nM]
13 | B2 | 0.955

molecular target: T4, Human TIGIT-His protein (Sino …); test: ELISA, human TIGIT-His coated

Row | Binder | EC50 [nM]
14 | B1 | 2.43
15 | B6 | 1.58
16 | B4 | 1.59
17 | B7 | 1.69

molecular target: T7, PD-L1-his (human, UniProt Q9NZQ7 19-238, limits assumed); test: BLI, Fortebio Octet RED96, antibody on AHC sensor, PD-L1-his in solution
T7 construct: also called human PD-L1 protein
T7 sequence (Q9NZQ7 19-238 limits assumed): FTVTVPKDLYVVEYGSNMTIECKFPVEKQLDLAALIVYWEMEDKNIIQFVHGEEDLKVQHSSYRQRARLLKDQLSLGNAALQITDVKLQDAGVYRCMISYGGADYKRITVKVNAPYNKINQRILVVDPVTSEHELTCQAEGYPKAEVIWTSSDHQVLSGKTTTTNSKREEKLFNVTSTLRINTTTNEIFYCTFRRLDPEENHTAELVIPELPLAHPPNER

Row | Binder | Kd [nM] | koff [s⁻¹] | kon [M⁻¹ s⁻¹]
18 | B2 | 2.08 | 0.000326 | 157000
19 | B3 | 1.15 | 0.000212 | 184000
20 | B8 | 1.49 | 0.000276 | 185000
21 | B9 | 1.9 | 0.000225 | 119000

Molecular target: T3, TIGIT-mFc (extracellular region of …)
Test: ELISA, blocking of TIGIT-mFc binding to coated CD155-hFc (competitor CD155-hFc)

Row | Binder | IC50 [nM]
22 | B5 | 1.34
23 | B1 | 1.01
24 | B6 | 1.03
25 | B4 | 0.954
26 | B7 | 1.04

molecular target: T5, TIGIT on TIGIT/NFAT-reporter-Jurkat …; test: cell-based or functional assay

Row | Binder | EC50 (nM), luciferase expression induced by anti-TIGIT antibody [nM] | Top (fold), luciferase expression induced by anti-TIGIT antibody [fold]
27 | B5 | 0.104 | 1.59
28 | B10 | 0.019 | 1.62
